This experiment deals with SNAP-25 (endogenous, human induced neurons) (human) (UniProt P60880). Kind of experiment: cell-based or functional assay.
Sequence of SNAP-25 (endogenous, human induced neurons) (human) (P60880 whole entry): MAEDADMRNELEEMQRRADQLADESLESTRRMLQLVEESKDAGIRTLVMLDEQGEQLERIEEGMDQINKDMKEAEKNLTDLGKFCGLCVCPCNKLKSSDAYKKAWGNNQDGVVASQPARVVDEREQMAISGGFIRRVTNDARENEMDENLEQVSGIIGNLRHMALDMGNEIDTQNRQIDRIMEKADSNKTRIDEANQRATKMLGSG

“endogenous CSPα of ANCL patient-derived induced neurons (iNs), which co-express the CSPα^WT and CSPα^L116Δ alleles (from UniProt Q9H3Z4 1-198; Q9H3Z4 1-198)” displayed an SNAP-25 degradation half-life, cycloheximide chase in iNs of 12.5 h and an SNAP-25 half-life after L1 or Dfx treatment against control, cycloheximide chase in ANCL iNs of 2 fold.

For the origin of these results see US20210290602A1.
